Key:
[1] = system: CHO cells; test: Fluorescence microscopy of ERK2 constructs (subcellular localization); format: cell-based
Description: FIGS. 1A-1R are photomicrographs illustrating the role of SPS in the non-regulated accumulation of ERK2 in the nucleus. CHO (FIGS. 1A-F and 1M-R) or COS7 cells (FIGS. 1G-L) were grown on cover slips and transfected with WT-ERK2, or the mutants 244-6A and Δ244-6. Twenty-four hr following transfection, the cells were serum-starved (16 hr), fixed, stained with DAPI and visualized using a fluorescent microscope.
FIGS. 2A-2X are photomicrographs illustrating the role of SPS in the stimulated nuclear translocation of ERK2. CHO cells were grown on cover slips and co-transfected with HA-MEK1 together with either WT-ERK2, 244-6A, or Δ244-6. Twenty-four hr after transfection, the cells were serum starved for 16 hours, treated with TPA (250 nM, 15 min), except in WT-10 where the cells were treated with 10 nM TPA for 15 min. After treatments the cells were fixed and stained with either anti-HA Ab or DAPI.
FIGS. 5A-5F are photomicrographs illustrating that mutating the Ser residues in the SPS to Glu induces the nuclear accumulation of ERK2. CHO cells were grown on cover slips and transfected with WT-GFP-ERK2 (WT), APA-GFP-ERK2 (APA), or EPE-GFP-ERK2 (EPE). Twenty-four hr after transfection, the cells were serum-starved, fixed, stained with DAPI and visualized by a fluorescent microscope.
FIGS. 7A-7H are photomicrographs illustrating that EPE-ERKs translocates to the nucleus faster than WT-ERK. CHO cells were transfected with WT-GFP-ERK2 (WT) and EPE-GFP-ERK2 (EPE). Eight (FIGS. 7A-D) or twelve (FIGS. 7E-H) hours after transfection the cells were fixed, stained with DAPI and visualized by a fluorescent microscope.
Immunofluorescence Microscopy. Cells were fixed (30 min in 3% paraformaldehyde in PBS or 10 min with ice-cold methanol), followed by 5-min permeabilization with 0.2% Triton X-100 in PBS (23° C.). The fixed cells were sequentially incubated with the appropriate Abs (45 min) followed by rhodamine-conjugated secondary Abs (45 min) and DAPI. Slides were visualized using a fluorescence microscope (Nikon, Japan) at 400× magnifications. […]

[2] = system: COS7 cells; test: Proliferation assay of COS7 cells overexpressing ERK2 constructs; format: cell-based; conditions: 72 hours after transfection
Description: FIG. 16 is a bar graph illustrating that the prevention of SPS phosphorylation inhibits proliferation. COS7 cells overexpressing WT-ERK2, 244-6A-ERK2, ▴244-6-ERK2, APA-ERK2 or EPE-ERK2 were subjected to proliferation assay 72 hours after transfection. The bar graph represent the mean+/−SD (n=3), Student t test was used for statistical analysis (*, p<0.01).

[3] = system: COS7 cells; test: Subcellular fractionation of GFP-ERK2 constructs; format: cell-based; conditions: 48 hr after transfection, serum-starved
Description: FIG. 6 is an autoradiograph illustrating the subcellular fractionation of WT-GFP-ERK2 (WT), APA-GFP-ERK2 (APA), or EPE-GFP-ERK2 (EPE). COS7 cells were grown in 10 cm plates and transfected with the above ERK2 constructs. Twenty-four hr after transfection the cells were serum-starved for 16 hr and subjected to cellular fractionation as described under materials and Methods. Western blot analysis of aliquots of the fractions were stained with anti GFP Ab to detect the ERK2 and its mutant, and with anti tubulin and anti c-Jun Abs as markers for the cytoplasmic and nuclear fractions respectively.
Cellular Fractionation: Transfected COS7 cells were starved (0.1% FBS) for 16 h, after which they were washed with ice-cold PBS, suspended in ice-cold buffer H, and centrifuged (12,000×g, 5 min). Then, the nuclear and cytosolic fractions were isolated as described [H. Rubinfeld, T. Hanoch, R. Seger, J. Biol. Chem. 274, 30349 (1999)]. Briefly, the pellets were suspended in 0.1% NP-40 followed by centrifugation (12,000×g, 5 min). The supernatant, containing the cytosolic fraction, was boiled in sample buffer. The pellet was suspended in extraction buffer (420 mM Nacl, 50 mM β-glycerophosphate, 0.5 mM Na3VO4, 1.5 mM MgCl2, 0.2 mM EDTA, 1 mM DTT, 25% glycerol), incubate on ice for 10 min, sonicated (50 W, 2×7 sec), and centrifuged (12,000×g, 5 min). […]

[4] = system: Nup153c; test: Interaction with recombinant His-Nup153c; format: binding; conditions: immunoprecipitated ERK2 incubated with 0.5 μg recombinant His-Nup153c
Description: (§1) FIGS. 19A-19C are autoradiographs illustrating that phospho-SPS interacts with importin-7 and releases Nup153c binding without involvment of importin-β. […]. Interaction of ERK2 with Importin-7 is enhanced by EGF stimulation and EPE mutation. HeLa cells overexpressing WT-ERK (WT), ERK-APA (APA), ERK-EPE (EPE) or GFP were serum starved and treated with EGF (50 ng/ml, 10 min). The extracts of the treated cells were then subjected to coimmunoprecipitation using A/G beads pre-conjugated with anti GFP Ab and mild washes. The coimmunoprecipitated importin-7 (first panel) and importin-β (third panel), as well as their loading amounts (panels 2 and 4 respectively) were determined by WB using anti importin-7 (αImp7) and importin-β (αImpβ) Abs. The equal amount of immunoprecipitated ERKs was determined with anti GFP (αGFP; IP) Ab. FIG. 19B. Interaction of 2GFP-SPS and its mutants with importin-7. HeLa cells overexpressing 2GFP, 2GFP-SPS, 2GFP-APA and 2GFP-EPE constructs were subjected to coimmunoprecipitation as described in FIG. 19A (without EGF stimulation). FIG. 19C. Interaction of NUP153 with WTERK2 and its APA and EPE mutants. NUP153c is elevated in APA-ERK2, but reduced in EPE-ERK2. Immunoprecipitated and stringently washed WT-ERK2 (WT), APA-ERK2 (APA) or ERK2 from […] cells pre-treated with or without TPA (250 nM, 15 min) were incubated with 0.5 μg recombinant His-Nup153c. […]

[5] = target: T1, importin-7 (Homo sapiens, UniProt O95373); test: Coimmunoprecipitation with importin-7; format: binding; conditions: HeLa cells, coimmunoprecipitation with anti GFP Ab, with or without stimulation
T1 construct: endogenous in cells; host or cells: HeLa
Description: as §1

T1 sequence (O95373 whole entry): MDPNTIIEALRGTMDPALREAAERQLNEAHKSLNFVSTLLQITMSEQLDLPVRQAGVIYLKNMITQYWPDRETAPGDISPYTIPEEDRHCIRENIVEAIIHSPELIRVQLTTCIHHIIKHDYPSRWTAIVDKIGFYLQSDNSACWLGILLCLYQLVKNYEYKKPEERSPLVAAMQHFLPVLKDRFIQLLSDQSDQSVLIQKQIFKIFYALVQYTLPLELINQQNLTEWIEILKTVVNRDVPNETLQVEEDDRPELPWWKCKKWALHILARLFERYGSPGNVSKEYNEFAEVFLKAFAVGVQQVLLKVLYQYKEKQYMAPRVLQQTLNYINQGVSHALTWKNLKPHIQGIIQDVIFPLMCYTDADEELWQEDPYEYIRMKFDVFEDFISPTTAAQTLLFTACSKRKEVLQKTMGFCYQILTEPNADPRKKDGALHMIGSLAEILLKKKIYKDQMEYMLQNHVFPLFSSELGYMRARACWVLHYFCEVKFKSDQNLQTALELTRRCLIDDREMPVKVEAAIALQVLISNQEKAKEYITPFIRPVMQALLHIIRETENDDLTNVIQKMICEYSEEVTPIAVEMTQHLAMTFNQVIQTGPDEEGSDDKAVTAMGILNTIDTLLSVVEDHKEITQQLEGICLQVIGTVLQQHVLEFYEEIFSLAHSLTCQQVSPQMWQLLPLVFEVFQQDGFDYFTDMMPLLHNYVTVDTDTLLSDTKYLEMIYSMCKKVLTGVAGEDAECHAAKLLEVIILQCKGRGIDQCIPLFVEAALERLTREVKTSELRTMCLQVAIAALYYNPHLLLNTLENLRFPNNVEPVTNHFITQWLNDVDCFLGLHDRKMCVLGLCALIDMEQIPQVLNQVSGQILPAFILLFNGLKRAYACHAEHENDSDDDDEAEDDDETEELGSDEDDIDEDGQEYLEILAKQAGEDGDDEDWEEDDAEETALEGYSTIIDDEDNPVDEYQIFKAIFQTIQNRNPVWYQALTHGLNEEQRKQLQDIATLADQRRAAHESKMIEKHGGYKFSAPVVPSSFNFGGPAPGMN

interaction of ERK2 constructs with importin-7 [5]: dramatically increased the interaction
B1: EPE-ERK2: GFP-ERK2 with the two Ser residues of the SPS domain replaced with Glu (phosphomimetic) (protein)
chain: MAAAAAAGPEMVRGQVFDVGPRYTNLSYIGEGAYGMVCSAYDNLNKVRVAIKKISPFEHQTYCQRTLREIKILLRFRHENIIGINDIIRAPTIEQMKDVYIVQDLMETDLYKLLKTQHLSNDHICYFLYQILRGLKYIHSANVLHRDLKPSNLLLNTTCDLKICDFGLARVADPDHDHTGFLTEYVATRWYRAPEIMLNSKGYTKSIDIWSVGCILAEMLSNRPIFPGKHYLDQLNHILGILGEPEQEDLNCIINLKARNYLLSLPHKNKVPWNRLFPNADSKALDLLDKMLTFNPHKRIEVEQALAHPYLEQYYDPSDEPIAEAPFKFDMELDDLPKEKLKELIFEETARFQPGYRS
modifications: left off: large carriers
speed of translocation into the nucleus ([1]; CHO cells, shortly (8 or 12 hours) after transfection): faster than WT-ERK2 | subcellular localization in quiescent cells ([1]; overexpressed in CHO (and COS7) cells, serum-starved, fluorescent microscope): pronounced nuclear localization | serum-induced cell proliferation [2]: slightly enhanced | localized in the nucleus [3]: ~95% | interaction with Nup153 [4]: reduced
